Data taken from the supplement of paper PMC9170038.

Test system: MS2 coat protein
Experiment: apparent KD of MS2 coat protein; designed switch direction (-1 OFF switch, 1 ON switch): -1; higher = weaker reporter binding
Outline: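 Normalised cluster fluorescence was curve-fitted, and each design's median over clusters is its apparent KD. Before this, SNAP-549-labelled MS2 coat protein was titrated from 0.7 or 1.5 nM, doubling to 3 µM, over RNA switches transcribed on Illumina chips by stalled E. coli RNA polymerase. Titrations had no input, 200 uM small-molecule ligand, or an oligonucleotide input, and steps lasted 0.8–1.5 h (lowest) to 10–20 min (highest).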

[1] = input ligand: microRNA oligo, concentration not stated
[2] = Eterna round: R95, input ligand: FMN 200 uM
[3] = Eterna round: R95, input ligand: microRNA oligo, concentration not stated
[4] = Eterna round: R95, input ligand: none

Sequence	apparent KD of MS2 coat protein (input ligand: FMN 200 uM)	apparent KD of MS2 coat protein (input ligand: none)	apparent KD of MS2 coat protein [1]	apparent KD of MS2 coat protein [2]	apparent KD of MS2 coat protein [3]	apparent KD of MS2 coat protein [4]
GGUCCCAGGCAGGAUAUGCAAGCCACACAUGGCGCAGAAGGGCUCACAUGAGGAUCACCCAUGUAUUUCGUUUU [Eternabot (L1) Solution 19] (Eterna round: R97, puzzle: Exclusion 6)	86 nM	42.3 nM				
UCGGCGCGAGGAUAUACGUUUGCUCUUUUUCGUUUUUGUGUACAUGAGGAUCACCCAUGUAGAAGGCGCGCCGC [Apr-15 SS2-19] (Eterna round: R96, puzzle: Exclusion 2)	80.9 nM	31.5 nM	17.3 nM			
AGAAAUGCCCAUGGCCGCAAGCUUUUUACUUGUCUUACCACAUGAGGAUCACCCAUGUGACAUGGGCUCCUUAUAAU [Oranla] (puzzle: Sensor v3, turn-off variant 2)				15.8 nM	7.4 nM	13 nM
UUAAUUAGCAGGCAAGAUCAUUACAUGAGGAUCACCCAUGUCGAGGAUAUCAGCUCGUUUAGAGCUGAGAAGGCGACAGCCUGC [ExNG3/13-A2] (Eterna round: R96, puzzle: Exclusion NG 3)	711 nM	417 nM	289 nM			
AGUUGGCGAGGAUAUACAUGAGGAUCACCCAUGUGAGAGAGACUAGUGAGGUCGAUUAGUAGAAGGCGCUGACA [Mat X3R4 m11] (Eterna round: R97, puzzle: Exclusion 3)	455 nM	29.3 nM				
UCUCGCGGGCAAGGAUAUCCUACGUUGUUCUGGCCCGGGCAUGUUACAUGAGGAUCACCCAUGUGGGAGAAGGUGCGCCAGGGC [Design 36] (Eterna round: R96, puzzle: Exclusion NG 2)	36.8 nM	36.7 nM	28.2 nM			
UUUGUCAGCGUCGAAGUUUACAUGAGGAUCACCCAUGUGAUCAACACAGGCAUAUAAUUAGUAAUGAGUUCGUCUUC [Eternabot (L2) Solution 40] (Eterna round: R97, puzzle: Sensor, turn-off variant 1)	24.9 nM	30.2 nM				
AACAUGAGGAUCACCCAUGUGAACCUCCUAAAAUACGACCGGUAGGAUAUACGAAAGAGCCGGAAGUAGAAGGACCGGUUAAAA [Esusale] (Eterna round: R96, puzzle: Exclusion NG 3)	460 nM	158 nM	96.1 nM			
AUCUUGUCAGGAUAUCGUACAAUAUGGAAAACAUAGAGGUACGAGAAGGGACAUGAGGAUCACCCAUGUAAAAC (Eterna round: R96, puzzle: Exclusion 4)			29 nM			
AGAGUACUGCGAGGAUAUACAUGAGGAUCACCCAUGUAAAAGUGUGAGGCAAAGCCUCACACUAUGUAGAAGGCGCAGUACUCA [Mat - Exclusion NG 2 - Mod of JL - D12] (Eterna round: R96, puzzle: Exclusion NG 2)	19 nM	18.2 nM	9.76 nM			
CAUUAUGUUGAGGAUAUGCACCAGCUCACUGACGCAGAAGGCGACACAUGAGGAUCACCCAUGUCAGUUCGCGA [salish99_ex6_r004_428] (Eterna round: R97, puzzle: Exclusion 6)	16.1 nM	14.6 nM				
GAGUGACAUGAGGAUCACCCAUGUAAGGAUAUACGGUUGGUAGAGAGAGGGAGAAAGGGUAGAAGGUACGAAGG [JR_Exclu1_Sub053] (puzzle: Exclusion 1)				45.5 nM	44.1 nM	101 nM
ACCGCCGGCGUAAGGAUAUGUGAAGAAAUCCCUUUACAGAAGGUACAUGAGGAUCACCCAUGUCUUCUAGGACG [Eternabot (L1) Solution 96] (Eterna round: R97, puzzle: Brourd's mod of Exclusion 4)	21.3 nM	22.3 nM				
